B1: TOR1AIP2 (parent)
chain: SPGHSSAGQEGEDTLRRRLLAPEA
B2: FAM189A2 (parent)
chain: GSEAAVIPLDLGCTQVTQDGDIPN

Variants of: B1
Test: protein stability index of a GFP-peptide fusion (GPS, HEK-293T) (PSI 1-6); higher = more stable
Details: c terminus: a fixed tail appended
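Further: lentivirally expressed fusions sorted by FACS into six bins by GFP to DsRed ratio, PSI derived from sequencing read proportions per bin multiplied by bin number.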

Protein stability index, by site and new letter:
S6: I 3.42; W 3.97; G 3.66; D 4.48; V 3.24; Q 4.65; Y 3.73; F 2.94; K 3.97; E 4.51; T 4.36; M 4.02; N 3.75; P 4.26; R 4.46; A 4.36; C 3.9; H 4.23; L 4.18
G8: L 4.21; D 4.51; A 4.24; E 4.5; P 4.53; N 4.05; S 4.42; W 4.19; C 4.46; H 4.69; Q 4.33; I 4.53; K 4.19; T 4.61; R 4; V 4.43; Y 3.79; F 3.34; M 4.05
A7: I 3.92; C 3.45; E 4.47; V 4.25; R 3.82; L 3.73; Q 4.24; Y 3.9; P 3.42; N 3.76; W 3.89; D 4.56; M 3.79; H 3.77; T 4.18; S 4.01; F 4.16; G 4.21; K 3.66
G11: V 4.04; L 4.13; K 4.5; R 4.64; M 4.15; F 3.49; P 4.05; H 4.07; N 4.46; D 4.64; Y 3.39; C 3.88; T 4.62; S 4.48; Q 4.38; E 4.6; W 3.6; I 3.82; A 4
T14: H 4.33; G 4.41; Q 4.11; R 4.65; L 4.84; W 4.5; I 4.42; V 3.97; K 4.94; C 2.67; E 4.4; N 3.63; A 4.06; Y 4.2; S 3.08; P 4.33; M 4.34; F 4.39; D 4.18
S1: W 4.53; H 4.57; F 2.59; C 3.46; P 5.3; D 5.21; T 4.88; E 5.47; M 4.49; G 3.81; Y 2.21; N 3.13; Q 4.02; A 5.07; R 4.05; I 4.92; L 4.91; V 4.59; K 4.47
R17: L 3.31; G 5; I 3.81; C 4.51; D 5.46; N 4.67; E 4.42; M 3.54; F 2.09; K 4.76; P 5.04; A 4.63; H 3.85
H4: Q 3.82; R 3.76; P 4.49; K 3.52; G 4.08; N 4.13; I 3.92; T 4.14; A 4.22; M 3.38; Y 3.84; V 3.81; D 4.89; E 4.15; W 3.98; L 3.85; F 4.3; C 3.71; S 4.39
P2: D 4.86; A 2.22; I 2.5; C 2.03; F 2.53; V 2.75; Y 2.24; W 2.65; K 4.44; R 4.47; G 4.22; M 3.75; S 3.93; Q 4.47; T 3.23; E 4.43; L 2.43; N 4.42; H 4.2
E10: N 3.72; C 2.67; P 3.94; V 4.04; Y 3.51; K 3.27; T 3.81; M 3.58; L 3.31; Q 3.88; S 4.06; F 3.68; I 3.63; G 3.91; A 3.75; W 3.42; D 3.94; H 3.61; R 3.62
D13: C 4.05; F 3.02; H 4.31; E 4.73; Q 4.09; T 3.65; W 2.96; N 4.27; R 3.32; S 3.67; P 4.53; I 3.88; V 4.15; K 4.52; L 3.77; G 4.1; M 3.06; A 3.19; Y 2.8
E12: Y 3.22; C 4; N 3.81; L 3.33; M 3.53; R 3.84; T 3.6; G 3.73; S 3.3; D 3.97; F 3.1; H 3.73; I 3.73; A 3.48; K 3.98; W 3.19; P 3.59; V 3.22; Q 3.38
S5: P 4.14; R 4; W 4.63; F 4; V 4.3; D 4.75; G 4.11; Q 4.64; I 3.78; T 4.46; N 4.42; L 3.9; Y 4.09; C 3.37; K 3.86; M 4.49; A 3.84; E 4.64; H 4.35
G3: P 4.69; Q 4.46; W 4.3; H 4.21; K 3.67; A 3.74; S 4.02; V 3.24; Y 3.83; M 4.48; F 3.85; N 4.16; R 2.93; L 3.78; I 3.51; D 4.73; E 4.65; C 3.32; T 3.59
Q9: Y 3.68; I 4.08; F 4.11; E 4.31; S 4.24; M 3.43; P 4.53; G 2.94; L 3.58; K 4.02; N 4.05; D 3.84; V 3.98; C 3.22; W 3.04; R 3.5; H 3.83; A 4.35; T 3.96
R16: E 5.46; F 4.71; D 5.68; L 4.61; K 4.79; C 5.14; G 5.41; V 5.51; A 5.37; S 5.63; T 5.04; Q 5.34; H 5.38; N 5.23; P 4.9; Y 4.44; M 4.6; W 3.52; I 5.06
L15: D 5.7; C 3.98; P 5.23; Q 4.98; N 5.49; Y 4.89; M 4.79; E 5.35; V 4.93; R 5.01; G 5.44; S 5.16; I 4.53; A 5.47; K 4.96; F 4.3; H 5.13; T 5.31; W 3.92

Variants of: B2
Test: as above
Details: c terminus: a fixed tail appended

Protein stability index: each site, then its substitutions
I22: D 5.64
E3: T 5.11
S2: P 5.21; K 4.64
Q15: M 5.27
C13: L 5.46
L11: I 5.11
P23: T 5.5; I 5.16
V16: F 5.1; T 5.53
D19: Q 5.12
A4: D 5.61; I 4.37
T14: L 5.17; W 4.16
I7: C 5.04
